Columns and labels:
Conditions in all cases: FMN input: 0 or 200 uM; Eterna round: R93 (includes R88 designs)
[1] = tested on: MS2 coat protein; test: apparent KD of MS2 coat protein, switch ON state; designed switch direction (-1 OFF switch, 1 ON switch): 1; higher = weaker reporter binding
Method in brief: (§1)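 Binding of SNAP-549-labelled MS2 coat protein was measured on designed RNA switches transcribed on-chip from Illumina sequencing clusters. The protein rose in twofold steps from 0.7 or 1.5 nM to 3 µM, with 0.8–1.5 h per step early on and 10–20 min per step later, in 100 mM Tris-HCl pH 7.5, 80 mM KCl, 4 mM MgCl2, without or with constant ligand. Each design's apparent KD is the median of fits to its normalised cluster binding curves.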

[2] = tested on: MS2 coat protein; test: apparent KD of MS2 coat protein, switch OFF state (with FMN for OFF switches, without FMN for ON switches); designed switch direction (-1 OFF switch, 1 ON switch): 1; higher = weaker reporter binding
Method in brief: as §1

[3] = tested on: MS2 coat protein; test: apparent KD of MS2 coat protein, switch ON state; designed switch direction (-1 OFF switch, 1 ON switch): -1; higher = weaker reporter binding
Method in brief: as §1

[4] = tested on: MS2 coat protein; test: apparent KD of MS2 coat protein, switch OFF state (with FMN for OFF switches, without FMN for ON switches); designed switch direction (-1 OFF switch, 1 ON switch): -1; higher = weaker reporter binding
Method in brief: as §1

Sequence	apparent KD of MS2 coat protein [1]	apparent KD of MS2 coat protein [2]	apparent KD of MS2 coat protein [3]	apparent KD of MS2 coat protein [4]
AACAAUCUAUCUGAGGAUAUCAUGACAAAGACAUGAGGAUCACCCAUGUACCAGGAAACUGGUUAUGAGAAGGCAGAUAGAUUGA [SS2: 1117]	11.5 nM	18.8 nM		
AAAAUAAAAUAAAAGGAUAUAAAAUAAAAAACAUGAGGAUCACCCAUGUAAAAACAUGGGAAAAAAAAGAAGGAAAAAUAAAAAA [SS2: 71 No MS2]	603 nM	1280 nM		
GCUUAUCCAUGCUAGGAUAUCGGCGAGAAAACAUGAGGAUCACCCAUGUGCUUGCAUAAAAGUCACGAGAAGGAGCCUGAUGGAC [Quanletira]	19.7 nM	17.3 nM		
AAAUAAAUGACUCAGGAUAUAUCAUAGAAAACAUGAGGAUCACCCAUGUAAUAAUAACAUGUUUGGUAGAAGGGAGUCAAUAAAU [LROPPY Same State 2 - v04_deltaG=1.25]	31.1 nM	18.6 nM		
AGCUAGUCAGGAUAUACGAACAUGUCGGAAGACGUGAAGGGACAUGAGGAUCACCCAUGUAGAAGGGACUAGCA [Mat - Exclusion 2 - JL mod - D3]			33.1 nM	136 nM
GAAAAGUCAGGAUAUGCAGAAAAAAAAACGAAAAAAAAACUGCAGAAGGGACAUGAGGAUCACCCAUGUUAAAG [Mat - Exclusion 4 - Mayanna - D128]			50.9 nM	33.1 nM
AGUAGGCGAGGAUAUACAUGAGGAUCACCCAUGUGAAAGAAAAAAGUGAGAAAGAAAAGUAGAAGGCGCUGACA [Ex 3 mod of Eli's mod of Lego's 73%]			60.4 nM	204 nM
AACAGGACAGGAUAUACAUGAGGAUCACCCAUGUAGGAAACAAGCAGAGUACCAAAAAGUAGAAGGGUCAUGGA [Ruby 30]			38.8 nM	63.3 nM
AAGGUACGAGGAUAUACAUAGAUACAGAUACAUGUAGACGUACAUGAGGAUCACCCAUGUAGAAGGCGUAUAUA [AJ 24]			46.8 nM	83 nM
UAAAAGUGAGGAUAUUCGGAUAGGAAAACGAAAACCUAUCCGAAGAAGGCACAUGAGGAUCACCCAUGUGGAAU [Mat - Exaclusion 4 - Eli mod - D48]			31.3 nM	36 nM
AGUCAGAGAGGAUAUACAAGGGAAAAAAAAGUUAGAUCCCUACAUGAGGAUCACCCAUGUAGAAGGCUCUGACA [Ex2 Design 152: Sub-opt 16]			108 nM	49.2 nM
AAAACUCGAGGAUAUGCAAAAUGAUUGCGAAAGCAAUCAAAACAUGAGGAUCACCCAUGUAGAAGGCGAGAAAA [Mat - Mod of Eli]			23.5 nM	13 nM
AAAACGGUAGGAUAUACGAUUUGGUACUAGACCGAGGAACCACAUGAGGAUCACCCAUGUAGAAGGACCAAAAA [EX2 Malc#19]			13 nM	14 nM
AACAAGACAGGAUAUACAUGAGGAUCACCCAUGUCACAAUAAAGUAGCGUAACACAAAGUAGAAGGGUCAUGGA [Ruby 8]			41.5 nM	50.4 nM
AAAGGAUCAGGAUAUGUGUGGAAAAAGUGUGUCCAAAAAAAACAUGAGGAUCACCCAUGUAGAAGGGAUCCAAA [Mod 4 of Normal (20/19) by Nando, Round 1]			222 nM	260 nM
AGGAUGUCAGGAUAUGUGUAAAGAAUAAAACAAAUAACAACACAGAAGGGACAUGAGGAUCACCCAUGUUACCC [May 38]			17.1 nM	17.7 nM
GGUUGUGUAGGAUAUACAUGAGGAUCACCCAUGUGAGAGAAAAAAGUGAGAAAGAAAAGUAGAAGGACGUGACG [salish99-ex3-72]			45.3 nM	42.7 nM
AAAAAAGGAGGAUAUACGAACAUGUCAAAAGACGUGAAGGGACAUGAGGAUCACCCAUGUAGAAGGUCUAAAAA [JL Part Open 35]			52.3 nM	34.1 nM
CUCAAGUUAGGAUAUCCAAGAAAAGAAGAGAAAGAAAAGAAGGAGAAGGAACAUGAGGAUCACCCAUGUAAGAA [EteRNA is fun!]			32.8 nM	38.5 nM
AAAAAGCGAGGAUAUACAUGAGGAUCACCCAUGUCAAAAGGUAAGACCGCAGAAAAAAGUAGAAGGCGCAAAAA [Exclusion3-01]			68.1 nM	172 nM
AGAAAGGCAGGAUAUACAUGAGGAUCACCCAUGUUAAGAGUGACGGAAACGUCACGAAGUAGAAGGGCCAAGAA [The song I sing]			20.4 nM	17.3 nM
AACAUGUAAGGAUAUCAAAGAAAAGAAAAGAAAGAAAAGAAUGAGAAGGUACAUGAGGAUCACCCAUGUAAGAA [EteRNA is fun!]			27.9 nM	21.1 nM

Sequence	apparent KD of MS2 coat protein [1]	apparent KD of MS2 coat protein [2]	apparent KD of MS2 coat protein [3]	apparent KD of MS2 coat protein [4]
ACCCUGCUAGGAUAUACAGCAGGGAUUCGAAAACCCACGAAACAUGAGGAUCACCCAUGUAGAAGGAGUAGGGA [Bimaat]			17.5 nM	16 nM
AAGAAGUCAGGAUAUGCCAGAGAACAAGAAAGUGACGAAUAGCAGAAGGGACAUGAGGAUCACCCAUGUAAAGA [Opal 10]			33.7 nM	21.9 nM
GGGAUGUCAGGAUAUGUGUAAAGAAUAAAACAAAUAACAACACAGAAGGGACAUGAGGAUCACCCAUGUUACCC [May 39]			17 nM	15.4 nM
AACAGUACAGGAUAUACAUGAGGAUCACCCAUGUGAAAAUUAAGUGGAAAACCACAGUGUAGAAGGGUACUGGA [Mat - Exclusion 3 - Eli mod - D53]			47.5 nM	191 nM
AAGAAGGGAGGAUAUACUAAAGAAAUGAAAAGAAAUAAAGAACAUGAGGAUCACCCAUGUAGAAGGCCCAAGAA [Nehesy]			29.7 nM	24.8 nM
GGUUGGCGAGGAUAUACAUGAGGAUCACCCAUGUGAGAGAUAAAAGUGAGAAAGAAAAGUAGAAGGCGCUGACG [salish99-ex3-45]			29.2 nM	65 nM
AAAAAGUGAGGAUAUGUCAAAAGUCACAAAAGUGACAAAAGACAGAAGGCACAUGAGGAUCACCCAUGUGAAAG [Mat - Exaclusion 4 - Eli mod - D53]			28.9 nM	37.6 nM
CUCAUGUGAGGAUAUGUACAGAAAAAAAUGGGUGAAACUGUACAGAAGGCACAUGAGGAUCACCCAUGUGCAAA [EX4 377: S S Pseudoknot 2]			19.1 nM	21.4 nM
AAAAAACAUGAGGAUCACCCAUGUGAGGAUAUCGAAAAGUUAAAGAAAAAGACGAAAAUGAGAAGGCGCAAAAA [Fiskers Exclusion D1]			26.3 nM	23.9 nM
AGUUGGCGAGGAUAUACAUGAGGAUCACCCAUGUGAAAUCGAGAAAAAAUAGGGAAAAGUAGAAGGCGCAGACA [Ruby 63]			20.6 nM	24.1 nM
AAUAAGUGAGGAUAUACGAAAUAAAUAAAUAAAUAAAUAAAGUAGAAGGCACAUGAGGAUCACCCAUGUAAUAA [My Mind Is Going Dave]			34.4 nM	29.7 nM
AUAAAGUGAGGAUAUACAUGAGGAUCACCCAUGUAAGAAAUAAAAUAAAUAAAGGGAAGUAGAAGGCACAAAUA [Denovo 1]			35.8 nM	41.3 nM
AUAGUACAUGAGGAUCACCCAUGUCAGGAUAUCGGAUAUGACAUGAAAAACAUGUUAACGAGAAGGGACUAUAA [EX1 Malc#19]			26.2 nM	36.6 nM
AAGAAGUGAGGAUAUCGAAGACAGACGAAAAGUCUGUCAAACGAGAAGGCACAUGAGGAUCACCCAUGUGGGAA [What have we learned so far? 64% 3]			69.5 nM	169 nM
AAAAUACAUGAGGAUCACCCAUGUGAGGAUAUCGUAAAGAAAGUGAUCAAAAGAAAUACGAGAAGGCACAUAAA [PK3]			123 nM	212 nM
AAAAAGGCAGGAUAUACAAAAAAGAGAAGAGAGGAGGAGGGACAUGAGGAUCACCCAUGUAGAAGGGCCAAAAA [Karl Gunnar Myrdal]			31.5 nM	32.5 nM
AAGUAUCGAGGAUAUACAUAGAUACAGAUUCAUGUAGAACUACAUGAGGAUCACCCAUGUAGAAGGCGAUAAUA [AJ 33]			31.8 nM	79.3 nM
AAAAAGGGAGGAUAUACAUGAGGAUCACCCAUGUAUCAGACGAAAAAGAGUCUGGAAUGUAGAAGGCCCAAAAA [65%, Moding Exclusion3-cac2, 3]			14.3 nM	25 nM
AAAAAGGGAGGAUAUGCAUACACACAAAAAAAAAAAAAGGGACAUGAGGAUCACCCAUGUAGAAGGCCCAAAAA [Dora Explored 5 - Jieux - Exclusion 2]			29.9 nM	25.1 nM
CCUAAACAUGAGGAUCACCCAUGUGAGGAUAUGAUGCGAAUAAAGAAAGAAGAAAGCAUCAGAAGGCACAUAGG			41.1 nM	283 nM
CUCUUGUCAGGAUAUGAAAGAAAAGAAGAGAAAGAAAAGAAUCAGAAGGGACAUGAGGAUCACCCAUGUAAGAA [EteRNA is fun!]			43.6 nM	77.9 nM
